The target in this test is CD33 Db-FM (fluorescein-maleimide-labelled anti-CD33 diabody, clone SGN-33) (fluorescein-5-maleimide on the engineered C-terminal cysteine (added after the hexahistidine tag)). As to the kind of experiment: SPR. For orientation: SPR reads the build-up and loss of mass on a sensor chip optically.

B1: extracellular domain of CD33, His-tagged protein (domain or fragment)
chain: DPNFWLQVQESVTVQEGLCVLVPCTFFHPIPYYDKNSPVHGYWFREGAIISRDSPVATNKLDQEVQEETQGRFRLLGDPSRNNCSLSIVDARRRDNGSYFFRMERGSTKYSYKSPQLSVHVTDLTHRPKILIPGTLEPGHSKNLTCSVSWACEQGTPPIFSWLSAAPTSLGPRTTHSSVLIITPRPQDHGTNLTCQVKFAGAGVTTERTIQLNVTYVPQNPTTGIFPGDGSGKQETRAGVVH
Regarding B1, the Kd (usually a measure of binding affinity in units of concentration) amounted to 7 nM.

Values taken from publication PMC11588662 (2024).
